Test results as given in publication PMC10397247.
Read-outs that look alike come from different tables or passages of the source.

Assays:
Test in all cases: two-hybrid library CCmax;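 note: natural log of median RNA to DNA barcode read ratio; higher means stronger binding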
[1] = biological target: T1, 4H2883-AA; details: mean of both orientations
T1 chain: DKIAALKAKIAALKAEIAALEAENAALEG

[2] = biological target: T2, 4H2837-AA; details: mean of both orientations
T2 chain: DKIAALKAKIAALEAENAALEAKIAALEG

[3] = biological target: T3, 4H454-AA; details: mean of both orientations
T3 chain: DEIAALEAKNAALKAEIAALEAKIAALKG

[4] = biological target: T4, 4H2393-AA; details: mean of both orientations
T4 chain: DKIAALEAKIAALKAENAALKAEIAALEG

[5] = biological target: T5, 4H3627-AA; details: mean of both orientations
T5 chain: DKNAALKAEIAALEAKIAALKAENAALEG

[6] = biological target: T6, 4H780-AA; details: mean of both orientations
T6 chain: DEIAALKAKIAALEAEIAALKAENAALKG

[7] = biological target: T7, 4H2151-AA
T7 chain: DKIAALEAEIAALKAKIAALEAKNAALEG

[8] = biological target: T8, 4H335-AA; details: mean of both orientations
T8 chain: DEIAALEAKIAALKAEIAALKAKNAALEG

[9] = biological target: T9, 4H2575-AA; details: mean of both orientations
T9 chain: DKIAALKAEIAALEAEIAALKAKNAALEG

[10] = biological target: T10, 4H342-AA; details: mean of both orientations
T10 chain: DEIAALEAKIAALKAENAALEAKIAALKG

[11] = biological target: T11, 4H3921-AA; details: mean of both orientations
T11 chain: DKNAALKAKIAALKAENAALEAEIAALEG

[12] = biological target: T12, 4H3427-AA; details: mean of both orientations
T12 chain: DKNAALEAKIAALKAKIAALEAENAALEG

[13] = biological target: T13, 4H3844-AA; details: mean of both orientations
T13 chain: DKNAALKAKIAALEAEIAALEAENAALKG

[14] = biological target: T14, 4H2642-AA
T14 chain: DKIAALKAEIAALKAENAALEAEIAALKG

[15] = biological target: T15, 4H3343-AA; details: mean of both orientations
T15 chain: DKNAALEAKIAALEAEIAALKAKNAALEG

[16] = biological target: T16, 4H2754-AA; details: mean of both orientations
T16 chain: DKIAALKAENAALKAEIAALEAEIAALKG

[17] = biological target: T17, 4H2078-AA
T17 chain: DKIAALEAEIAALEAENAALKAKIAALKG

[18] = biological target: T18, 4H2190-AA; details: mean of both orientations
T18 chain: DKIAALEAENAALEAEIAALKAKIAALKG

[19] = biological target: T19, 4H234-AA; details: mean of both orientations
T19 chain: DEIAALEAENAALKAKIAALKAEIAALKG

[20] = biological target: T20, 4H3606-AA; details: mean of both orientations
T20 chain: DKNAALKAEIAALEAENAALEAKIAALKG

[21] = biological target: T21, 4H2466-AA; details: mean of both orientations
T21 chain: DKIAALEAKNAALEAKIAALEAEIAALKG

[22] = biological target: T22, 4H2949-AA; details: mean of both orientations
T22 chain: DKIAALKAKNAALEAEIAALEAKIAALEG

[23] = biological target: T23, 4H2354-AA; details: mean of both orientations
T23 chain: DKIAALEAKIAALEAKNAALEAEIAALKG

[24] = biological target: T24, 4H2617-AA; details: mean of both orientations
T24 chain: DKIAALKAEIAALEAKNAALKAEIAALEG

[25] = biological target: T25, 4H3655-AA
T25 chain: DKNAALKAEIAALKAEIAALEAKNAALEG

[26] = biological target: T26, 4H249-AA
T26 chain: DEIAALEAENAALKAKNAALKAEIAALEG

[27] = biological target: T27, 4H3112-AA; details: mean of both orientations
T27 chain: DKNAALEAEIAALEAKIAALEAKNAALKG

[28] = biological target: T28, 4H717-AA; details: mean of both orientations
T28 chain: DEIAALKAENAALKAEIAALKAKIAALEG

[29] = biological target: T29, 4H794-AA; details: mean of both orientations
T29 chain: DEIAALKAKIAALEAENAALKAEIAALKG

[30] = biological target: T30, 4H605-AA; details: mean of both orientations
T30 chain: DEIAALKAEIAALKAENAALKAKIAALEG

[31] = biological target: T31, 4H566-AA; details: mean of both orientations
T31 chain: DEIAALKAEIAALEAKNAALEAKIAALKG

[32] = biological target: T32, 4H993-AA; details: mean of both orientations
T32 chain: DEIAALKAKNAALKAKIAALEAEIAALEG

[33] = biological target: T33, 4H2165-AA; details: mean of both orientations
T33 chain: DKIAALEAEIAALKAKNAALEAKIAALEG

[34] = biological target: T34, 4H906-AA; details: mean of both orientations
T34 chain: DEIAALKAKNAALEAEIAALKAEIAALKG

[35] = biological target: T35, 4H881-AA; details: mean of both orientations
T35 chain: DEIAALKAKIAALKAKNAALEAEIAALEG

[36] = biological target: T36, 4H2505-AA; details: mean of both orientations
T36 chain: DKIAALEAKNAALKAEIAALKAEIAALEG

[37] = biological target: T37, 4H2944-AA; details: mean of both orientations
T37 chain: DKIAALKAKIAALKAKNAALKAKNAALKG

[38] = biological target: T38, 4H678-AA; details: mean of both orientations
T38 chain: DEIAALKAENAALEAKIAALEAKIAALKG

[39] = biological target: T39, 4H429-AA; details: mean of both orientations
T39 chain: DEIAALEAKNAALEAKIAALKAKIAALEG

[40] = biological target: T40, 4H2277-AA; details: mean of both orientations
T40 chain: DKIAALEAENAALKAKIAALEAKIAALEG

[41] = biological target: T41, 4H48-AA; details: mean of both orientations
T41 chain: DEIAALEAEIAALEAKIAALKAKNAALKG

[42] = biological target: T42, 4H317-AA; details: mean of both orientations
T42 chain: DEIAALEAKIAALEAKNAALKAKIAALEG

[43] = biological target: T43, 4H2729-AA; details: mean of both orientations
T43 chain: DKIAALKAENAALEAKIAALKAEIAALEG

[44] = biological target: T44, 4H1867-AA
T44 chain: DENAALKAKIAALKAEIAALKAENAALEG

DKIAALEAEIAALEAENAALKAKIAALKG [4H2078-AA]
interaction score [1]: 0.158
interaction score [2]: 1.93
interaction score [3]: -0.599
interaction score [4]: 2.47
interaction score [5]: -0.14
interaction score [6]: -1.14
interaction score ([7]; mean of both orientations): -1.39
interaction score [8]: 0.35
interaction score [9]: -0.721
interaction score [10]: 2.14
interaction score [11]: 2.02
interaction score [12]: -0.664
interaction score [13]: -0.801
interaction score ([14]; mean of both orientations): 2.25
interaction score [15]: -1.08
interaction score [16]: 0.637
interaction score [17]: 1.98
interaction score [18]: 1.33
interaction score [19]: -0.505
interaction score [20]: -0.297
interaction score [21]: -0.982
interaction score [22]: -1.02
interaction score [23]: -0.00435
interaction score [24]: 2.35
interaction score [25]: -1.22
interaction score [26]: 0.347
interaction score [27]: -0.952
interaction score [28]: -1.62
interaction score [29]: 1.84
interaction score [30]: 1.68
interaction score [31]: -1.05
interaction score [32]: -1.03
interaction score [33]: 0.246
interaction score [34]: -0.59
interaction score [35]: 2.31
interaction score [36]: 1.62
interaction score [37]: 0.298
interaction score [38]: -0.466
interaction score [39]: 1.79
interaction score [40]: -1.09
interaction score [41]: 0.504
interaction score [42]: 1.93
interaction score [43]: 0.661

DKIAALEAEIAALKAKIAALEAKNAALEG [4H2151-AA]
interaction score [1]: 0.105
interaction score [2]: -1.4
interaction score [3]: -1.11
interaction score [4]: -1.54
interaction score [5]: -0.182
interaction score [7]: 1.45
interaction score [10]: -1.26
interaction score [12]: -1.02
interaction score [13]: -0.871
interaction score ([14]; mean of both orientations): -1.42
interaction score [15]: -1.19
interaction score [16]: -1.27
interaction score [18]: -1.15
interaction score [19]: -1.58
interaction score [20]: -1.24
interaction score [21]: -1.42
interaction score [22]: -0.904
interaction score [23]: -1.44
interaction score [24]: -0.476
interaction score ([25]; mean of both orientations): -0.942
interaction score [27]: -0.356
interaction score [28]: -1.61
interaction score [29]: -1.95
interaction score [30]: -1.4
interaction score [31]: -1.47
interaction score [32]: -1.43
interaction score [33]: -0.932
interaction score [34]: -1.28
interaction score [35]: -1.51
interaction score [36]: -1.6
interaction score [37]: -1.39
interaction score [38]: -1.37
interaction score [39]: -1.48
interaction score [40]: -1.38
interaction score [41]: 0.747
interaction score [42]: -0.983
interaction score [43]: -0.63

DENAALKAKIAALKAEIAALKAENAALEG [4H1867-AA]
interaction score [1]: -0.898
interaction score [2]: -1.19
interaction score [3]: -0.172
interaction score [4]: -1.58
interaction score [5]: 0.353
interaction score [6]: -0.525
interaction score ([7]; mean of both orientations): -1.27
interaction score [8]: -0.988
interaction score [9]: 1.63
interaction score [10]: -0.881
interaction score [11]: -1.88
interaction score [12]: -1.26
interaction score [13]: 1.01
interaction score [14]: -2.13
interaction score [15]: 0.12
interaction score [16]: 1.11
interaction score ([17]; mean of both orientations): -0.776
interaction score [44]: 0.169
interaction score [18]: -0.428
interaction score [19]: -0.943
interaction score [20]: -1.11
interaction score [21]: -1.6
interaction score [22]: -1.06
interaction score [23]: -1.35
interaction score [24]: -1.4
interaction score ([25]; mean of both orientations): -0.0304
interaction score [27]: 0.579
interaction score [28]: -1.28
interaction score [29]: -1.4
interaction score [30]: -1.5
interaction score [31]: -1.59
interaction score [32]: -1.05
interaction score [33]: -1.77
interaction score [34]: -1.71
interaction score [35]: -1.8
interaction score [36]: -1.62
interaction score [37]: -0.512
interaction score [38]: -1.03
interaction score [39]: -1.51
interaction score [40]: -1.23
interaction score [41]: 1.5
interaction score [42]: -1.01
interaction score [43]: -1.46
